Data reported in IntAct's records for PubMed 12629052.

Molecular target: fkb1a_human FKBP1A (UniProt P62942)
Sequence (P62942 whole entry): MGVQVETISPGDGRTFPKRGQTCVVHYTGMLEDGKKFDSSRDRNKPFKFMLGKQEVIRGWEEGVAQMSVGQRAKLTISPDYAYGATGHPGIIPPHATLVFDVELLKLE

Question: How did the “effect of a mutation on the interaction” value turn out when “Ryanodine receptor 1 (Oryctolagus cuniculus (Rabbit)), P11716 S2843D” was run?
Answer: disrupting interaction
